From patent EP1012307B1, “ZYMOGENIC PROTEASE PRECURSORS THAT CAN BE AUTOCATALYTICALLY ACTIVATED AND THEIR USE” (Roche Diagnostics GmbH, priority 1997, dated 1999)
Peptide text beside a SMILES is read from it. * marks the point of attachment. pNA = O=[N+]([O-])c1ccc(N*)cc1; Tos = Cc1ccc(S(=O)(=O)*)cc1

Columns and labels:
Assay in all cases: Trypsin activity with Chromozym TH as substrate, kinetic constants kcat and Km
[1] = target: T1, humanes Trypsin I, Trypsinvariante rTRYI-VGR (Aktivierungspeptid ValGlyArg, autokatalytisch aktiviert) (Homo sapiens, UniProt P07477); assay type: biochemical; settings: Substrat: Chromozym®TH; 25°C, 50 mmol/l Tris-HCl, 150 mmol/l NaCl, 5 mmol/l CaCl2, 0,1% PEG 8000, pH 8,0
T1 construct: kodierend für Trypsin I von Aminosäureposition 24-247; made in house
Protocol: Das N-terminale native Trypsinogen I Prosegment AlaProPheAspAspAspAspLys wurde durch das Aktivierungspeptid ValGlyArg ersetzt. Das TRYI-VGR Trypsinvariantengen wurde analog wie das TRYI-GPK Trypsinvariantengen mittels PCR-Technik hergestellt.
(§1) Die Aktivitätsbestimmung von Trypsin wurde in einem Volumen von 1 ml in 50 mmol/l Tris-HCl, 150 mmol/l NaCl, 5 mmol/l CaCl2, 0,1% PEG 8000, pH 8,0 und 0,1 mmol/l des chromogenen Substrats Chromozym®TH (Tosyl-Gly-Pro-Arg-4-pNA, Kat.-Nr. 838268, Boehringer Mannheim GmbH, Mannheim, Deutschland) bei 25°C durchgeführt. Die Reaktion wurde durch Zugabe von 1-10 µl Trypsin-haltiger Probe (0,4-4 U/ml, gelöst in 1 mmol/l HCl) gestartet und die Absorptionsänderung/min (ΔA/min) bei 405 nm (ε405 = 9,75 [mmol^-1 x 1 x cm^-1]) bestimmt. 1 Chromozym®TH Unit Trypsin ist definiert als die Menge Enzym, die 1 µmol pNitroanilin (pNA) pro min bei 25°C aus dem chromozymen Substrat freisetzt.
Die FXa Aktivitätsbestimmung wurde mit dem chromogenen Substrat Chromozym® X (0,1 mmol/l, N-Methoxycarbonyl-D-Nle-Gly-Arg-pNA, Boehringer Mannheim GmbH, Mannheim, Kat.-Nr. 789763) in einem Volumen von 1 ml bei 25°C in 50 mmol/l Tris-HCl, 150 mmol/l NaCl, 5 mmol/l CaCl2, 0,1% PEG 8000, pH 8,0, durchgeführt. […]

[2] = substrate: Cc1ccc(S(=O)(=O)NCC(=O)N2CCC[C@H]2C(=O)N[C@@H](CCCNC(=N)N)C(=O)Nc2ccc([N+](=O)[O-])cc2)cc1; assay type: biochemical, Schweine; settings: other: Substrat: Chromozym®TH, 25°C, 50 mmol/l Tris-HCl, 150 mmol/l NaCl, 5 mmol/l CaCl2, 0,1% PEG 8000, pH 8,0
Protocol: as §1
(§2) Die FXa Aktivitätsbestimmung wurde mit dem chromogenen Substrat Chromozym® X (0,1 mmol/l, N-Methoxycarbonyl-D-Nle-Gly-Arg-pNA, Boehringer Mannheim GmbH, Mannheim, Kat.-Nr. 789763) in einem Volumen von 1 ml bei 25°C in 50 mmol/l Tris-HCl, 150 mmol/l NaCl, 5 mmol/l CaCl2, 0,1% PEG 8000, pH 8,0, durchgeführt. Die Reaktion wurde durch Zugabe von 1-10 µl rFXa-haltiger Probe (0,4-4 U/ml) gestartet und die Absorptionsänderung/min (ΔA/min) bei 405 nm (ε405 = 9,75 [mmol^-1 x 1 x cm^-1]) gemessen. 1 Unit (U) FXa Aktivität ist definiert als die Menge Enzym, die 1 µmol pNA pro min bei 25°C aus dem chromozymen Substrat freisetzt. Die Aktivität und die kinetischen Konstanten wurden aus der linearen Anfangssteigung gemäß der Michaelis-Menten-Gleichung bestimmt. Die Ergebnisse zeigt Tabelle 1. Tabelle 1

[3] = substrate: Cc1ccc(S(=O)(=O)NCC(=O)N2CCC[C@H]2C(=O)N[C@@H](CCCNC(=N)N)C(=O)Nc2ccc([N+](=O)[O-])cc2)cc1; assay type: biochemical, human; settings: other: Substrat: Chromozym®TH, 25°C, 50 mmol/l Tris-HCl, 150 mmol/l NaCl, 5 mmol/l CaCl2, 0,1% PEG 8000, pH 8,0
Description: Durch Einführung einer zusätzlichen Disulfidbrücke wurde das humane Trypsin I Isoenzym verändert. Dazu wurde die Aminosäure Pro an Position 132 und die Aminosäure Tyr an Position 233 zu Cys mutiert (Aminosäuresequenz-Nummerierung entsprechend der Publikation von Emi, M. et al. (Gene 41 (1986) 305-310)). Durch diese 2 Punktmutationen (P132C und Y233C) kann sich eine zusätzliche 6-te Disulfidbrücke zwischen den erfindungsgemäß eingeführten Cysteinresten an Position 132 und 233 ausbilden. Zudem wurde die Aminosäure Pro an der Position 133 zu Ala mutiert (P133A).
as §1, §2

In the case of Cc1ccc(S(=O)(=O)NCC(=O)N2CCC[C@H]2C(=O)N[C@@H](CCCNC(=N)N)C(=O)Nc2ccc([N+](=O)[O-])cc2)cc1 [Chromozym®TH, Tosyl-Gly-Pro-Arg-4-pNA] (Tos-Gly-Pro-Arg-pNA), the kcat [1] is reported as 95 ± 1 s⁻¹.

B1: Schweine Trypsin (Sigma-Aldrich Chemie GmbH, Kat.-Nr. T-7418) (Sus scrofa) (protein)
chain: IVGGYTCAANSIPYQVSLNSGSHFCGGSLINSQWVVSAAHCYKSRIQVRLGEHNIDVLEGNEQFINAAKIITHPNFNGNTLDNDIMLIKLSSPATLNSRVATVSLPRSCAAAGTECLISGWGNTKSSGSSYPSLLQCLKAPVLSDSSCKSSYPGQITGNMICVGFLEGGKDSCQGDSGGPVVCNGQLQGIVSWGYGCAQKNKPGVYTKVCNYVNWIQQTIAAN
notes: purchased Sigma-Aldrich Chemie GmbH T-7418
With B1 the Km [2] was 8.5 µM, the kcat [2] was 97 ± 3 s⁻¹ and the kcat/Km [2] was 11,4 1/µM/s.

B2: humanes Trypsin I, Trypsinvariante rTRYI-GPK-SS (P132C, P133A, Y233C; zusätzliche Disulfidbrücke) (Homo sapiens; P132C/P133A/Y233C) (protein)
chain: IVGGYNCEENSVPYQVSLNSGYHFCGGSLINEQWVVSAGHCYKSRIQVRLGEHNIEVLEGNEQFINAAKIIRHPQYDRKTLNNDIMLIKLSSRAVINARVSTISLPTACAATGTKCLISGWGNTASSGADYPDELQCLDAPVLSQAKCEASYPGKITSNMFCVGFLEGGKDSCQGDSGGPVVCNGQLQGVVSWGDGCAQKNKPGVYTKVCNYVKWIKNTIAANS
notes: kodierend für Trypsin I von Aminosäureposition 24-247; the Lys is residue 23) (N, cleaved yes); made in house
For B2, the Km [3] was 19 ± 1 µM, the kcat [3] was 99 ± 2 s⁻¹ and the kcat/Km [3] was 5,2 1/µM/s.
